Test results: IntAct's records for PubMed 19118384

B1: FAS-associated death domain protein (Homo sapiens), Q13158 (parent)
chain: MDPFLVLLHSVSSSLSSSELTELKFLCLGRVGKRKLERVQSGLDLFSMLLEQNDLEPGHTELLRELLASLRRHDLLRRVDDFEAGAAAGAAPGEEDLCAAFNVICDNVGKDWRRLARQLKVSDTKIDSIEDRYPRNLTERVRESLRIWKNTEKENATVAHLVGALRSCQMNLVADLVQEVQQARDLQNRSGAMSPMSWNSDASTSEAS

Variants of: B1
Conditions: with FAS

Q: For MDPFLVLLHSVSSSLSSSELTELKFLCLGRVGKRKLERVQSGLDLFSMLLEQNDLEPGHTELLRELLASLRRHDLLRRVDDFEAGAAAGAAPGEEDLCAAFNVICDNVGKDWRRLARQLKVSDTKIDSIEDRYPRNLTERVRESLRIWKNTEKENATVAHLVGALRSCQMNEVADLVQEVQQARDLQNRSGAMSPMSWNSDASTSEAS [L172E], which “effect of a mutation on the interaction” value is on record?
A: The value was “decreasing interaction”.
